Positions count from the first letter of the chain named.

First the molecules themselves.
B1: 1E2 (VHH)
VHH: EVQLVESGGGLVQPGGSLRLSCAASGRTFSSYAMGWFRQAPGKEREFVAGISWSGSSSYYADSVKGRFTISRDNAKNTVYLQMNSLKPEDTAVYYCAADPVGRADLYEYDYWGQGTQVTVSS
notes: anti-HGF Nanobody clone; not shown: c-myc and His6 tags
B2: 1C7 (VHH)
VHH: B1 VHH with P14A, S56G, S58T, Q82R
notes: anti-HGF Nanobody clone, tested as periplasmic extract; not shown: c-myc and His6 tags
B3: 10G3 (VHH)
VHH: B1 VHH with P14A, A24D, I51V, S52N, S56D, S58T, T91A
notes: as for B2
B4: 6B2 (VHH)
VHH: B1 VHH with P14A, G50A, S52N, S56D, S58T, D99G, P100D, A104P
notes: as for B1
B5: 9G6 (VHH)
VHH: EVQLVESGGGLVQAGGSLRLSCAASGRTLSDYTMGWFRQAPGKEREFVARINTGGPITSYSDSVKGRFTISRDNAKNTVYLQMNSLKPEDTAVYNCAARLPTKMSPRDYSSYAYRGQGTQVTVSS
notes: as for B1
B6: 6G6 (VHH)
VHH: EVQLVESGGGLAQAGGSLRLSCAASGRSLSNYAMGWFRQAPGKEREIVCAISRSGSITTYADSVKGRFTIAKDNAANTVYLQMNSLKPEDTAAYYCAADPMYYGIPDQNWDYWGQGTQVTVSS
notes: as for B1
B7: 6E6 (VHH)
VHH: B6 VHH
notes: as for B2
B8: 6E11 (VHH)
VHH: B6 VHH
notes: as for B2
B9: 6A6 (VHH)
VHH: B6 VHH
notes: as for B2
B10: 5D10 (VHH)
VHH: B6 VHH
notes: as for B2
B11: 5E8 (VHH)
VHH: B6 VHH
notes: as for B2
B12: 9E6 (VHH)
VHH: B6 VHH
notes: as for B2
B13: 5B7 (VHH)
VHH: B6 VHH
notes: as for B2
B14: 6F6 (VHH)
VHH: EVQLVESGGGLVQPGGSLRLSCAASGSILGINAMGWYRQAPGKQRELVAVINSGGSTNYADSVKGRFTISRDNAKNTVYLQMNSLKPEDTAVYYCNADEWGDYPGQVYDYWGQGTQVTVSS
notes: as for B1
B15: 5G9 (VHH)
VHH: EVQLVESGGGLVQTGGSLRLSCAASGRTFSPYAAGWFRHAPGKEREFVTAITWSGGSTYYADSVKGRFTISRDNAKNTVYLQMNSLKPEDTAVYYCAASYRWGITHEFDYWGQGTQVTVSS
notes: as for B2
B16: 6E10 (VHH)
VHH: EVQLVESGGGLVQAGGSLRLSCAASGRTDSSYAMGWFRQAPGKEHEFVAAISWSGGSTYYADSVKGRFTISRDNAKNTLYLQMNSLKPEDTAVYYCGASYRWGITHEYEYWGQGTQVTVSS
notes: as for B1
B17: 1E9 (VHH)
VHH: EVQLVESGGGLVQPGGSLRLSCAASGFTLDHYTIGWFRQAPGNEREGVSCISSLDGSTYYADSVKGRFTISRDNAKDTVYLQMNSLKPEDTAVYYCAVAGCGAYGLIPYDYWGQGTQVTVSS
notes: as for B1
B18: 7G6 (VHH)
VHH: EVQLVESGGGLVQAGGSLRLSCAVSGRTFSPYTMGWFRRAPGKEREFVAARTWSGGVAWYADSVKGRFTISSDNAENMVYLQMNSLKPEDTAVYYCAAKSPGRTYSPREERAYARWGQGTQVTVSS
notes: as for B1
B19: 6B6 (VHH)
VHH: EVQLVESGGGLVQPGGSLRLSCAASGFTFDDYAMSWGRQAPGKGLEWVSAISWNGGSTYYAESMKGRFTVSRDNAKNTLYLQMNSLKSEDTAVYYCAKALDPLGVLAGTSGIYDYWGQGTQVTVSS
notes: as for B2
B20: 5C7 (VHH)
VHH: EVQLVESGGGLVQAGDSLRLSCAASGGTFGSSHMAWFRQVPEKEREFVAAISRSGGTTYYADSVKGRCTISRDNAKNTVYLQMNSLKPEDTAVYYCAAARFWGSTSTRMDDYQYWGQGTQVTVSS
notes: as for B1
B21: 6H6 (VHH)
VHH: EVQLMESGGGLVQAGGSLRLSCAASGRTFSSYAMGWFRQAPGKERENVAAISSSGGYTYYPDSVKGRFTISRDTAKNTVYLQMNSLKPDDTAVYYCAGTQPNFGWQLLLLQTEYDYWGQGTQVTVSS
notes: as for B1
B22: 1F3 (VHH)
VHH 1: EVQLVESGGGLVQSGGSLKLSCAASGFTFSNYFMSWVRQTPEKRLEWVAYISSGGGSTYYPDSVKGRFTISRDNAKNTLYLQMSSLKSEDTAMYYCVRQGDGYYGDYAMDYWGQGTSVTVSS
VHH 2: DIQMTQSPASLSVSVGETVTITCRASENIYSNLAWYQQKQGKSPQLLVYDATHLPDGVPSRFSGSGSGTQFSLKINSLQSEDFGSYYCQHFWGTPYTFGGGTRLEIKR

The target in the first test is T1, human HGF (R&D Systems, 294-HG/CF) (human, UniProt P14210 32-728).
T1 construct: The entry begins at QRKRR, without signal peptide; Amine-coupled to the chip in SPR and biotinylated in AlphaScreen; also called rec hHGF (R&D systems)
T1 sequence (P14210 32-728 limits assumed): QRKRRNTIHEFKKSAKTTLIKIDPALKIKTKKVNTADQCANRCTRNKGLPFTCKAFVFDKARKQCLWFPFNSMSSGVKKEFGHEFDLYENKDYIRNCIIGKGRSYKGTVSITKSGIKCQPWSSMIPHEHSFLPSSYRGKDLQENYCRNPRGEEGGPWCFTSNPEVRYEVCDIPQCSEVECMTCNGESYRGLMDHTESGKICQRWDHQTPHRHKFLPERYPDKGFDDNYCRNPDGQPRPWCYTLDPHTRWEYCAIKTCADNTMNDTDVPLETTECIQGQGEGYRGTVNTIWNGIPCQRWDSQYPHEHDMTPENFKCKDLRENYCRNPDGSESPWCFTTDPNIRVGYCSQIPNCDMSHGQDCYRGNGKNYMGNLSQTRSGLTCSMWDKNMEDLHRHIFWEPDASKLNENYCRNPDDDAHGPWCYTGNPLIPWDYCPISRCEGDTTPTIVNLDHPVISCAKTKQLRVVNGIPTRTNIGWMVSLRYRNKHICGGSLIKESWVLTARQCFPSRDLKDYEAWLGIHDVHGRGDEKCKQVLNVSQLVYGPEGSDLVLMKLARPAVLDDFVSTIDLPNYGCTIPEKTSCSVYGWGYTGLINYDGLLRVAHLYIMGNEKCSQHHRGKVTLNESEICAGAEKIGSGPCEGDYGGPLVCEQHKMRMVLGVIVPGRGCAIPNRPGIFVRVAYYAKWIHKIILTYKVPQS
Briefly: SPR (Biacore T100), HGF amine-coupled to CM5 chip, periplasmic extract at one dilution. The procedure:
Off-rate constants (Koff) of individual Nanobodies were determined by surface plasmon resonance on a Biacore T100 instrument.
Human HGF (R&D) was amine-coupled to a CM5 sensor chip at a density of 2500 relative units. Remaining reactive groups were inactivated using ethanolamine. Nanobody binding was assessed at a single dilution of periplasmic extract, whereas c-Met was tested with a single concentration of 10 nM. Each sample was injected for 2 min at a flow rate of 45 μl/min to allow for binding to chip-bound antigen. Next, binding buffer without Nanobody was sent over the chip at the same flow rate to allow dissociation of bound Nanobody. After 10 min, remaining bound analyte was removed by injecting regeneration solution (1M NaCl, 50 mM NaOH).
A general note: Surface plasmon resonance follows binding to a sensor surface in real time, without labels.
For B1, the koff (usually a measure of how fast the partners let go of each other) turned out to be 0.00312 s⁻¹.

In turn, B2 displayed a koff of 0.00286 s⁻¹.

Molecule B3 registered a koff of 0.000377 s⁻¹.

For the molecule B4, the koff came out at 0.000774 s⁻¹.

Regarding B5, the koff turned out to be 0.00107 s⁻¹.

In turn, B6 gave an off-rate (koff) of 0.00178 s⁻¹.

As to B7, the koff was 0.0017 s⁻¹.

The molecule B8 came in with a koff of 0.00168 s⁻¹.

B9 had a koff of 0.00164 s⁻¹.

B10 showed a koff of 0.00199 s⁻¹.

Turning to B11, the dissociation rate constant (koff) stood at 0.00163 s⁻¹.

In turn, B12 came in with a koff of 0.00218 s⁻¹. This koff and that of the molecule before are within 1.5-fold of each other.

In turn, B13 yielded a dissociation rate constant (koff) of 0.00175 s⁻¹. This koff and that of the molecule before are within 1.5-fold of each other.

Take B14: the koff turned out to be 0.00545 s⁻¹. Against the preceding molecule, the koff is about 3.1-fold higher.

Take B15: the off-rate constant (koff) turned out to be 0.0008 s⁻¹. This koff lies about 6.8-fold lower than the previous one.

In turn, B16 displayed a koff of 0.000324 s⁻¹.

B17 gave a dissociation rate constant (koff) of 0.00314 s⁻¹.

The molecule B18 had a koff of 0.000936 s⁻¹. This koff is about 3.4-fold lower than that of the molecule before.

In turn, B19 came in with a koff of 9.37e-06 s⁻¹. Compared with the last molecule, the koff is about 100-fold lower.

B20 displayed a dissociation rate constant (koff) of 0.0019 s⁻¹.

Regarding B21, the koff was 0.0139 s⁻¹.

As to B22, the koff is 0.00345 s⁻¹.

The target in another test is T2, human HGF (R&D material and Peprotech material, values averaged over both) (human, UniProt P14210 32-728).
T2 construct: As printed they differ in one letter
T2 sequence (P14210 32-728 limits assumed): as above
Briefly: SPR (Biacore T100), summary table.
For B1, binding was characterised by a dissociation constant (Kd) of 1.36 nM and the off-rate (koff) was 0.0001 s⁻¹.

Consider B4, for which the equilibrium dissociation constant (Kd) (in general, the free concentration of one partner at which half of the binding sites on the other are occupied at equilibrium, for simple one-to-one binding) was at most 0.08 nM and the koff was at most 1e-05 s⁻¹.

As for B5, the koff is 0.001 s⁻¹.

The molecule B6 returned a Kd of 7.37 nM and a koff of 0.006 s⁻¹.

Molecule B16 registered an equilibrium dissociation constant (Kd) of 1.14 nM and a dissociation rate constant (koff) of 5e-05 s⁻¹.

As for B17, binding was put at a Kd of 7.16 nM and the koff is 0.0005 s⁻¹.

Turning to B21, the koff was found to be 0.003 s⁻¹.

A further test has as its target T1, human HGF (R&D Systems, 294-HG/CF). Briefly: AlphaScreen competition, biotinylated HGF and c-Met-Fc, dilution series of purified Nanobody. The procedure: (§1) In brief, 5 μl of 1/5 prediluted periplasmic extract of individual Nanobody clones were incubated with 3 nM biotinylated HGF, 2 nM c-Met-Fc, streptavidin coated donor beads and anti-human IgG1 Fc Nanobody covalently coupled AlphaScreen acceptor beads. Monoclonal antibody clone 24612 (R&D systems) known to inhibit the HGF/c-Met-Fc interaction, was used as a positive control. Assays were read in an Envision AlphaScreen™ option fitted multimode reader (Perkin Elmer). Individual clones were scored as putative HGF/c-Met-Fc interaction inhibiting if the presence of the periplasmic extract decreased the fluorescent signal of the acceptor beads. Both inhibitory and non-inhibitory clones were identified. A 10-fold reduction in signal with respect to the negative control (irrelevant periplasmic extract and buffer) was used to select the HGF/c-Met inhibiting Nanobodies. As a positive control, anti-HGF monoclonal antibody (R&D systems, clone 24612) was included. FIG. 2 depicts an example of screen of periplasmic extracts using AlphaScreen.
(§2) Serial dilutions of purified Nanobodies were then analyzed for their ability to block the interaction of human HGF with c-Met-Fc using the same AlphaScreen™ assay as described above (1.4). […]
In general terms: Alpha assays give light when donor and acceptor beads are brought close together.
In the case of B1, the IC50 (usually the point on the concentration scale where inhibition reaches its midpoint) worked out at 1.8 nM.

The molecule B4 showed an IC50 of 2.8 nM. This IC50 lies about 1.6-fold higher than the previous one.

For the molecule B5, the half-inhibitory concentration (IC50) is 6.6 nM. Compared with the last molecule, the IC50 is about 2.4-fold higher.

B6: the IC50 stood at 2.8 nM.

B16: the IC50 is 3 nM.

B17 yielded an IC50 of 4.5 nM. Compared with the last molecule, the IC50 is about 1.5-fold higher.

With B21, the IC50 came to 26.7 nM.

The target is the same in another test. Put plainly: AlphaScreen competition, serial dilution of purified Nanobody; inhibition of biotinylated human HGF binding to c-Met-Fc. Here is the method: as §1, §2
Take B18: the “IC50 (read off the curve)” value was about 3 nM.

Consider B20, for which the “IC50 (read off the curve)” value is about 10 nM.

For the next test, the target named is T2, human HGF (R&D material and Peprotech …). Briefly: SPR (Biacore T100), purified Nanobody, biphasic dissociation, kd2 fitted 300-720 s after injection start.
B5 returned a koff of 0.00102 s⁻¹.

B14 displayed an off-rate (koff) of 0.00213 s⁻¹.

In turn, B20 displayed a koff of 0.000821 s⁻¹. This koff lies about 2.6-fold lower than the previous one.

Molecule B21 displayed a koff of 0.00332 s⁻¹.

The next test has the same target. Put plainly: SPR (Biacore T100), purified Nanobody, average of R&D and Peprotech HGF. The procedure: Affinity constants (Kd) of individual purified Nanobody clones were determined by surface plasmon resonance on a Biacore T100 instrument essentially as described above. The average was taken of an analysis performed on R&D material and Peprotech material.
B1: the Kd was determined as 1.36 nM; the dissociation rate constant (koff) was found to be 0.0001 s⁻¹; the on-rate constant (kon) (as a rule, a measure of how fast the partners come together) turned out to be 75200 M⁻¹ s⁻¹.

The molecule B4 gave a Kd of 0.08 nM, a koff of 2.15e-06 s⁻¹ and a kon of 27800 M⁻¹ s⁻¹.

Molecule B6 displayed a Kd of 7.37 nM, a koff of 0.00573 s⁻¹ and a kon of 753000 M⁻¹ s⁻¹.

For B16, binding was characterised by a dissociation constant (Kd) of 1.14 nM, the koff is 5.5e-05 s⁻¹ and the kon came out at 49900 M⁻¹ s⁻¹.

As to B17, the Kd worked out at 7.16 nM, the koff worked out at 0.00052 s⁻¹ and the kon worked out at 92000 M⁻¹ s⁻¹.

In turn, B18 came in with a Kd of 0.67 nM, a koff of 0.000691 s⁻¹ and a kon of 1.06e+06 M⁻¹ s⁻¹.

A further test has the same target. Briefly: SPR (Biacore T100), purified Nanobody, biphasic dissociation, kd1 fitted 125-185 s after injection start.
In turn, B5 yielded a koff of 0.00237 s⁻¹.

In the case of B14, the koff worked out at 0.00577 s⁻¹.

The molecule B20 yielded a koff of 0.00605 s⁻¹.

B21: the koff worked out at 0.00313 s⁻¹. Against the preceding molecule, the koff is about 1.9-fold lower.

For the origin of these results see patent US20150010546A1 (Ablynx, published 2015).
